Experimental data reported in patent publication US20240287172A1 (SCIRHOM, published 2024).
Numbering of substitutions follows the chain as printed.

Columns and labels:
hiR2-FL-M591A-T7 = molecular target: T1, hiR2-FL-M591A-T7 (human, UniProt Q6PJF5 1-856); assay: FACS on MEF-DKO cells expressing the variant, 3 µg/ml antibody
T1 sequence: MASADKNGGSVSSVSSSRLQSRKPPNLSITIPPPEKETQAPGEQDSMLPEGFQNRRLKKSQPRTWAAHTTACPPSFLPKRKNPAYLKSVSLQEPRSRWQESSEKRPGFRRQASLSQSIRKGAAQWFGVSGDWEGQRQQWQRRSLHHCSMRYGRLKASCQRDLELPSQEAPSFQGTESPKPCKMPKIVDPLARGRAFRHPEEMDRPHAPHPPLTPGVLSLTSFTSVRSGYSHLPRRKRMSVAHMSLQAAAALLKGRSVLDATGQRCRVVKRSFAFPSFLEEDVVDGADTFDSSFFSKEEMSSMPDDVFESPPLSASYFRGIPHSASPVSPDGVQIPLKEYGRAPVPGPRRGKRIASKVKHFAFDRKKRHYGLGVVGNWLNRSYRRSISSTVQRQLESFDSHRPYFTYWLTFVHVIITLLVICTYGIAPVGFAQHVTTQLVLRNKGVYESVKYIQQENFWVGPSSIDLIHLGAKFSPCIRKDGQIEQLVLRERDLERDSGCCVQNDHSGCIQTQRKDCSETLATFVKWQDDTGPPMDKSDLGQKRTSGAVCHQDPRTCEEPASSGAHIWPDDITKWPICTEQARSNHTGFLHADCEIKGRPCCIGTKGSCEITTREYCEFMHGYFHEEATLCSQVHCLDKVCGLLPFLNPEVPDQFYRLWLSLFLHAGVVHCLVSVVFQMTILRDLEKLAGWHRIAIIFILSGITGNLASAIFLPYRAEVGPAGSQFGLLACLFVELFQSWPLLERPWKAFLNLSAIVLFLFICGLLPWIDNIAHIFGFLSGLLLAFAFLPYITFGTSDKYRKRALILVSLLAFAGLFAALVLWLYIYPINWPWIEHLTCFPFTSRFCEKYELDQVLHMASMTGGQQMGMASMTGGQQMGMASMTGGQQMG
Procedure, shortened: (§1)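 Flow cytometry read-out of binding to variant-expressing cells after two-step staining on ice: 1 h with antibody at 3 μg/ml, then 1 h with PE-labelled goat anti-mouse IgG F(ab′)2 diluted 1:100. Controls received FACS buffer without primary antibody.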

hiR2-FL-L589A-T7 = molecular target: T2, hiR2-FL-L589A-T7 (human, UniProt Q6PJF5 1-856); assay: as above
T2 sequence: T1 sequence with L589A, A591M
Procedure, shortened: as §1

B1: antibody 48 (antibody, V domains shown)
VH: QVQLQQSGTELVRPGTSVKVSCKASGYAFTNYLIEWVKQRPGQGLEWIGVINPGSGFTKYNEKFKGKATLTADKSSSTVYMHLSSLTSEDSAVYFCARGLYRAMDYWGQGTSVTVSS
VL: DIQMTQSPASQSASLGESVTITCLASQTIATWLAWYQQKPGKSPQLLIYGATTLADGVPSRFSGGGSGTKFSFKISSLQAEDFVSYYCQQLYSTPYTFGGGTKLEIK
notes: mouse IgG, kappa light chain; also called clone #48; purified antibody 48
- loss of binding vs wild type (hiR2-FL-M591A-T7): ≥ 30%
- loss of binding vs wild type (hiR2-FL-L589A-T7): ≥ 60%

B2: antibody 50 (antibody, V domains shown)
VH: B1 VH with T9A, T16A, T30S, V79A, H82Q
VL: B1 VL with A30G, G50A, T52A, T53S, S85N, L91I
notes: mouse IgG, kappa light chain; also called clone #50; purified antibody 50
- loss of binding vs wild type (hiR2-FL-M591A-T7): ≥ 30%
- loss of binding vs wild type (hiR2-FL-L589A-T7): ≥ 60%
